These results are taken from US20250339564A1 (ACADEMISCH ZIEKENHUIS LEIDEN H O D N LUMC, published 2025).

This test concerns the target T1, Epithelial Cell Adhesion Molecule (EpCAM) (human, UniProt P16422 24-314).
T1 construct: whole, on cells; Target is endogenous EpCAM in patient tumor tissue: in vivo targeting for m1, FFPE sections for the IHC antibodies
T1 sequence (looked up): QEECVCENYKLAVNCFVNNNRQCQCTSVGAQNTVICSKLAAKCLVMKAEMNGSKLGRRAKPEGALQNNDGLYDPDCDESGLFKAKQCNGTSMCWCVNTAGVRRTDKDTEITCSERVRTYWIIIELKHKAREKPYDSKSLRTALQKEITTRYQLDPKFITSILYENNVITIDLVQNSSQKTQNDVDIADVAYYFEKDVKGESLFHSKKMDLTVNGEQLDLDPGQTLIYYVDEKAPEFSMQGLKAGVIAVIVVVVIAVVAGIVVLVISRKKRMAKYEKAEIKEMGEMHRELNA
The experiment in a line: NIR fluorescence microscopy (Axio scan) of metastatic lymph node sections after IV dosing, overlaid with EpCAM IHC.

B1: VB5-845D-800CW (Fab, V domains shown)
VH: EVQLQQSGPGLVQPGGSVRISCAASGYTFTAYGMNWVRQAPGKGLEWMGWINTYTGESTYADSFKGRFEFSLDTHNSSAYLQIQSLREEDTAVYYCARFAIQGDYWGQGTLVTVSS
VL: DIQMTQSPSSLSASVGDRVTITCKSTKSLLHSNGITYLYWYQQKPGSAPKLLIYQMSHLASGVPSRFSSSGSGTDFTLTISSLQPEDFATYYCAQNLEIPRTFGQGTKVEIKR
modifications: IRDye 800CW conjugated by N-hydroxysuccinimide ester chemistry to primary amines (sites and chain not stated)
In the case of B1, the binding result is reported as “binds”.
